According to article doi:10.1101/2023.11.14.567104:

Biological target: Recombinant soluble integrin αvβ3 (UniProt P06756)
Assay: SPR

Heparin-binding domain (HBD, residues 111-165) of VEGF165, wild type (domain or fragment)
Kd: 470 nM
